According to US20150252107A1, “APLNR Modulators and Uses Thereof” (Regeneron Pharmaceuticals, Inc., priority 2013, published 2015):
One block for each molecule: values may come before it.

How the values were obtained:
[1] = target: T1, hAPLNR (Homo sapiens, UniProt P35414); test: CRE assay of modified apelin peptides in HEK293/CRE-luc/hAPLNR cells; assay type: cell-based; details: Table 9; 5 μM forskolin
T1 construct: expressed in transfected cells
T1 sequence (P35414 1-380): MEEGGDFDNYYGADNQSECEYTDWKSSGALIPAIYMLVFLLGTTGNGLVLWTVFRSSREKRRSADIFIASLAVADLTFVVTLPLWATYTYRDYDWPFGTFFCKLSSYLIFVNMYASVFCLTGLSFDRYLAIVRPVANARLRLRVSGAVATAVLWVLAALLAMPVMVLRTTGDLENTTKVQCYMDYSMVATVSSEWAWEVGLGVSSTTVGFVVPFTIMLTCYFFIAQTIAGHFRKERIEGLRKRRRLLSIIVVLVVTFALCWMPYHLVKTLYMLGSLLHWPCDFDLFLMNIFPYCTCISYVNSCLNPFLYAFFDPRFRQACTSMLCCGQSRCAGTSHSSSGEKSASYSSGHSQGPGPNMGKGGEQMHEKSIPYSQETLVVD
Description: After 5 hours of incubation at 37° C. in 5% CO2, luminescence was measured following the addition of One Glo reagent (Promega, #E6051) using a Victor X instrument (Perkin Elmer). The data were fit by nonlinear regression to a 4-parameter logistic equation with Prism 5 software (GraphPad).

[2] = test system: HEK293 parental cells; test: FACS binding to HEK293 parental cells; details: 10 μg/mL antibody
Description: Binding ratios for human APLNR binding to purified anti-APLNR monoclonal antibodies were determined by a fluorescence-activated cell sorting (FACS) binding assay. […] The resulting stable cell lines, HEK293/CRE-luc/hAPLNR and HEK293/CRE-luc/MfAPLNR, were maintained in DMEM containing 10% FBS, NEAA, and penicillin/streptomycin with either 100 μg/mL Hygromycin B for hAPLNR cells or 500 μg/mL G418 for MfAPLNR cells.
For the FACS analysis, HEK293 parental, HEK293/CRE-luc/hAPLNR, and, HEK293/CRE-luc/mfAPLNR cells were dissociated using Enzyme Free Dissociation reagent (#S-004, Millipore, Billerica, Mass., USA) and 10^6 cells/well were plated onto 96-well v-bottom plates in PBS containing 1% FBS. […] Cells were then filtered and analyzed on Accuri Flow Cytometer (BD Biosciences, San Jose, Calif., USA). Unstained and secondary antibody alone controls were also tested for binding to all cell lines. […] Geometric mean (Geom. mean) of fluorescence for each antibody was then normalized to geometric mean of unstained cells to obtain relative binding of antibody (binding ratios) per each cell type: HEK293 (parental), HEK293/CRE-luc/hAPLNR and HEK293/CRE-luc/MfAPLNR.

[3] = target: T1, hAPLNR; test: cyclic AMP (CRE-luciferase) assay, activation of hAPLNR in HEK293/CRE-luc/hAPLNR cells; assay type: cell-based; details: without Apelin; for % Activation at 100 nM mAb (at 10 uM Forskolin) / % Activation at 100 nM mAb (at 5 uM Forskolin): Table 6A, % of maximum Apelin activation
Description: The ability of anti-APLNR antibodies to activate hAPLNR-mediated cell signaling was measured using a cyclic AMP assay. The hAPLNR is a 7-transmembrane G-protein coupled receptor (GPCR).
(§1) The resulting cell line, HEK293/CRE-luc/hAPLNR, was maintained in DMEM containing 10% FBS, NEAA, penicillin/streptomycin, and 100 μg/mL Hygromycin B.
(§2) Testing of antibodies included a no antibody control.
(§3) The results of all assays were analyzed using nonlinear regression (4-parameter logistics) within Prism 5 software (GraphPad).

[4] = target: T1, hAPLNR; test: cyclic AMP (CRE-luciferase) assay, inhibition of hAPLNR in the presence of 100 pM Apelin; assay type: cell-based; details: Tables 6C and 6D
Description: as §1, §2, §3

Molecule: CSCC[C@H](NC(=O)[C@@H]1CCCN1C(=O)CNC(=O)[C@H](CCCCN)NC(=O)[C@H](Cc1c[nH]cn1)NC(=O)[C@H](CO)NC(=O)[C@H](CC(C)C)NC(=O)[C@H](CCCNC(=N)N)NC(=O)[C@@H]1CCCN1C(=O)[C@@H](N)CCCNC(=N)N)C(=O)N1CCC[C@H]1C(=O)O [Apelin66-76]
- EC50 [1]: 5.19 pM

B1: H2aM9227N: anti-APLNR antibody, HCVR/LCVR SEQ ID NOs 50/58, mouse IgG2a Fc (antibody, V domains shown)
VH: EVQLVESGGGLVQPGGSLRLSCAASGFTFSSFWMSWVRQVPGKGLEWVANIKQDGSEKYYVDSVKGRFTISRDNAKNSLYLQMNSLRAEDTAVYYCARDRFGYSFYDKGVRYYYGMDVWGQGTTVTVSS
VL: DIQMTQSPSSLSVSVGDRVTITCRASQGIRNDLGWYQQKPGKAPKRLIYATSSLQSGVPSRFSGSGSGTEFTLTISGLQPEDFATYYCLQHNSYPRTFGQGTKVEIK
modifications: mouse IgG2a Fc
- Binding Ratio of Geom. Mean to Unstained Cells, HEK293 Parental [2]: 4
- % Activation at 100 nM mAb (at 10 uM Forskolin) [3]: 12%
- activation of hAPLNR, % of maximum Apelin activation at 100 nM, the highest antibody dose tested ([3]; text on Table 6A): 12%

B4: H2aM9228N: anti-APLNR antibody, HCVR/LCVR SEQ ID NOs 66/74, mouse IgG2a Fc (antibody, V domains shown)
VH: EVQLVESGGGLVQPGGSLRLSCAASGFTFSNYWMSWVRLAPGKGLEWVANIKQDGSERYYVGSVKGRFTISRGDAKNSLYLQMNSLRAEDTAVYYCARDRFGYSAFDKGVRYYYGMDVWGQGTTVTVSS
VL: DIQMTQSPSSLSASVGDRVTITCRASQGIRNDLGWYQQKPGKAPKRLIYAASSLQSGVPSRFSGSGSGTEFTLTISSLQPEDFATYYCLQHNSYPRTFGQGTKVEIK
modifications: mouse IgG2a Fc
- Binding Ratio of Geom. Mean to Unstained Cells, HEK293 Parental [2]: 3
- % Activation at 100 nM mAb (at 10 uM Forskolin) [3]: No Activation

B5: H2aM9222N: anti-APLNR antibody, HCVR/LCVR SEQ ID NOs 34/42, mouse IgG2a Fc (antibody, V domains shown)
VH: EVQLVESGGGLVQPGGSLRLSCAASGFTFSNYWMSWVRQAPGKGLEWVANIKQDGSERYYVGSVKGRFTISRGDAENSLYLQMNSLRAEDTAVYYCARDRFGYSAYDKGVRYYYGMDVWGQGTTVTVSS
VL: DIQMTQSPSSLSASVGDRVTITCRASQGIRNDLGWYQQKPGKAPKRLIYAASSLQSGVPSRFSGSGSGTEFTLTISSLQPEDFATYYCLQHNSYPRTFGQGTKVEIK
modifications: mouse IgG2a Fc
- Binding Ratio of Geom. Mean to Unstained Cells, HEK293 Parental [2]: 2
- % Activation at 100 nM mAb (at 10 uM Forskolin) [3]: No Activation

B6: H4H9104P: anti-APLNR antibody, HCVR/LCVR SEQ ID NOs 178/186, human IgG4 Fc (antibody, V domains shown)
VH: QVQLVESGGDLVKPGGSLRLSCAASGFTFSDYYMNWIRQAPGKGLEWVSYISSSGSTIHYADSVKGRFTISRDNAKNLVYLRMNSLRAEDTAVYFCAREREVHDYSDPYFFFYGMDVWGQGTTVTVSS
VL: DIQMTQSPSSVSASVGDRVTITCRASQDVSSWLAWYQHKPGKAPKLLIFAASSLQSGVPSRFSGSGSGTDFTLTISSLQSEDFATYYCQQANSFPLTFGGGTKVEIK
modifications: human IgG4 Fc
- inhibition (maximum blockade) of 100ρM Apelin activation [4]: did not demonstrate any measurable blockade
- % Activation at 100 nM mAb (at 5 uM Forskolin) [3]: No Activation

B9: H1M9207N: anti-APLNR antibody, HCVR/LCVR SEQ ID NOs 2/10, mouse IgG1 Fc (antibody, V domains shown)
VH: EVQLVESGGGLAQPGGSLRLSCAASGFTFSNYWMSWVRQAPGKGLEWVANIKQDGSEKYYLESVKGRFTISRDNAKNLLYLQMNSLRAEDTAVFYCARPGLLRFLEPGRRYYSGMNVWGQGTTVTVSS
VL: DIQLTQSPSFLSASVGDRVTITCWASQGIRSYLAWYQQKPGKAPKLLIYAASTLQSGVPSRFSGSGSGTEFTLTISSLQPEDFATYYCQQFNSYPWTFGQGTKVEIK
modifications: mouse IgG1 Fc
- Binding Ratio of Geom. Mean to Unstained Cells, HEK293 Parental [2]: 4
- % Activation at 100 nM mAb (at 10 uM Forskolin) [3]: No Activation

B10: H4H9112P: anti-APLNR antibody, HCVR/LCVR SEQ ID NOs 194/202, human IgG4 Fc (antibody, V domains shown)
VH: QVQLVQSGAEVKKPGASVEVSCKASGYTFTDYYIHWIRQAPGQGLEWMGWINPDSGRTNYAQKFQVRVTMTRDTSITTAYMELNRLKSDDTAVYYCARGPLRGYSGYDFFDYWGQGTLVTVSS
VL: DIQMTQSPSSLSAFVGDRVTITCRASQSISSYLNWYQQKPGKAPKLLIYTASTLQRGVPSRFRGSGSGTDFTLTISSLQPEDFATYYCHQTYSIPITFGQGTRLEIK
modifications: human IgG4 Fc
- inhibition (maximum blockade) of 100ρM Apelin activation [4]: did not demonstrate any measurable blockade
- % Activation at 100 nM mAb (at 5 uM Forskolin) [3]: No Activation

The next lines start with results.

- % Activation at 100 nM mAb (at 5 uM Forskolin) [3]: No Activation
B2: H4H9113P: anti-APLNR antibody, HCVR/LCVR SEQ ID NOs 210/218, human IgG4 Fc (antibody, V domains shown)
VH: QVQLVQSGAEVKKPGASVEVSCKASGYTFTDYYIHWIRQAPGQGLEWMGWINPDSGRTNYAQKFQVRVTMTRDTSITTAYMELNRLKSDDTAVYYCARGPLRGYSGYDFFDYWGQGTLVTVSS
VL: DIQMTQSPSSLSASVGDRVTITCRASQGIRNDLGWYQQKPGKAPNRLIYAASSLQSGVPSRFSGSGSGTEFTLTISSLHPEDFATYSCLQHNSFPLTFGGGTKVEIK
modifications: human IgG4 Fc
- inhibition (maximum blockade) of 100ρM Apelin activation [4]: did not demonstrate any measurable blockade

- % Activation at 100 nM mAb (at 10 uM Forskolin) [3]: No Activation
B3: H2aM9230N: anti-APLNR antibody, HCVR/LCVR SEQ ID NOs 82/90, mouse IgG2a Fc (antibody, V domains shown)
VH: EVQLVESGGGLVQPGGSLRLSCAASGFTFSSFWMSWVRQVPGKGLQWVANIKQDGSEKYYVDSVKGRFTISRDNAKNSLYLQMNSLRAEDTAVYYCARDRFGYSVYDKGVRYYYGMDVWGQGTTVTVSS
VL: DIQMTQSPSSLSVSVGDRVTITCRASQGIRNDLGWYQQKPGKAPKRLIYAASSLQSGVPSRFSGSGSGTEFTLTISGLQSEDFATYYCLQHKSYPRTFGQGTKVEIK
modifications: mouse IgG2a Fc
- Binding Ratio of Geom. Mean to Unstained Cells, HEK293 Parental [2]: 3

- % Activation at 100 nM mAb (at 5 uM Forskolin) [3]: No Activation
B7: H4H9103P: anti-APLNR antibody, HCVR/LCVR SEQ ID NOs 162/170, human IgG4 Fc (antibody, V domains shown)
VH: EVQLVESGGGLVQPGRSLRLSCAASGFTFDDYAMHWVRQVPGKGLEWVSGITWNSGDIGYADSVKGRFTISRDNAKNSLYLQMNSLRAEDTALYYCTKDKDSSGYYGIDVWGQGTTVTVSS
VL: DIQMTQSPSSVSASVGDRVTITCRASQGIRTWLAWYQQKPGKAPKLLIYAASSLQSGVPSRFSGSESGTDFTLTISSLQPEDFATYYCQQANSFPFTFGPGTKVDIK
modifications: human IgG4 Fc
- inhibition (maximum blockade) of 100ρM Apelin activation [4]: did not demonstrate any measurable blockade

- % Activation at 100 nM mAb (at 5 uM Forskolin) [3]: No Activation
B8: H4H9101P: anti-APLNR antibody, HCVR/LCVR SEQ ID NOs 146/154, human IgG4 Fc (antibody, V domains shown)
VH: QVQLVQSGAEVKKPGASVEVSCKASGYTFTDYYIHWIRQAPGQGLEWMGWINPDSGRTNYAQKFQVRVTMTRDTSITTAYMELNRLKSDDTAVYYCARGPLRGYSGYDFFDYWGQGTLVTVSS
VL: DIQLTQSPSFLSASVGDRVTITCWASQGISSYLAWYQQKPGKAPKLLIYAASTLQSGVPSRFSGSGSGTEFTLTISSLQPEDFASYFCQQLNSNPRTFGQGTKVEIK
modifications: human IgG4 Fc
- inhibition (maximum blockade) of 100ρM Apelin activation [4]: did not demonstrate any measurable blockade
